Source: the supplement of paper PMC9112550, “Optimization of the antimicrobial peptide Bac7 by deep mutational scanning” (BMC Biology, 2022)

Tested on: Escherichia coli TOP10
Assay: shrunken log2 fold change of peptide-encoding DNA abundance (4.5 h post-induction vs induction); higher = less antimicrobial activity (less host growth inhibition)
Conditions: time post-induction: 4.5 h; library: site-saturation at positions 5, 18, 19, 20
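Note: peptides expressed intracellularly from a pBAD plasmid library in pooled LB shake-flask culture, induced with 0.3% L-arabinose, DNA abundance read by NGS, three biological replicates, DESeq2 with apeglm shrinkage.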

RRIRTRPPRLPRPRPRPYKQPRP
shrunken log2 fold change: -0.0217

RRIRTRPPRLPRPRPRPYMSPRP
shrunken log2 fold change: -0.0144

RRIRTRPPRLPRPRPRPYNAPRP
shrunken log2 fold change: -1.3

RRIRTRPPRLPRPRPRPYNFPRP
shrunken log2 fold change: 0.0438

RRIRTRPPRLPRPRPRPYPSPRP
shrunken log2 fold change: -0.575

RRIRTRPPRLPRPRPRPYQEPRP
shrunken log2 fold change: -0.182

RRIRTRPPRLPRPRPRPYQLPRP
shrunken log2 fold change: -0.5

RRIRTRPPRLPRPRPRPYQWPRP
shrunken log2 fold change: -0.216

RRIRTRPPRLPRPRPRPYREPRP
shrunken log2 fold change: -0.196

RRIRTRPPRLPRPRPRPYSLPRP
shrunken log2 fold change: -0.186

RRIRTRPPRLPRPRPRPYTPPRP
shrunken log2 fold change: -0.34

RRIRTRPPRLPRPRPRPYVCPRP
shrunken log2 fold change: -0.215

RRIRTRPPRLPRPRPRPYVGPRP
shrunken log2 fold change: -0.689

RRIRTRPPRLPRPRPRPYVHPRP
shrunken log2 fold change: -0.75

RRIRTRPPRLPRPRPRPYWAPRP
shrunken log2 fold change: -0.0649

RRIRTRPPRLPRPRPRPYWCPRP
shrunken log2 fold change: -0.53

RRIRTRPPRLPRPRPRPYYKPRP
shrunken log2 fold change: -0.38

RRIRVRPPRLPRPRPRPAAEPRP
shrunken log2 fold change: 0.109

RRIRVRPPRLPRPRPRPAAFPRP
shrunken log2 fold change: 0.227

RRIRVRPPRLPRPRPRPAASPRP
shrunken log2 fold change: 0.267

RRIRVRPPRLPRPRPRPACNPRP
shrunken log2 fold change: -0.0138

RRIRVRPPRLPRPRPRPADSPRP
shrunken log2 fold change: -0.0859

RRIRVRPPRLPRPRPRPAFIPRP
shrunken log2 fold change: 0.00175

RRIRVRPPRLPRPRPRPAFWPRP
shrunken log2 fold change: 2.56

RRIRVRPPRLPRPRPRPAGDPRP
shrunken log2 fold change: 0.778

RRIRVRPPRLPRPRPRPAGMPRP
shrunken log2 fold change: -0.0507

RRIRVRPPRLPRPRPRPAHMPRP
shrunken log2 fold change: -0.103

RRIRVRPPRLPRPRPRPAKHPRP
shrunken log2 fold change: -0.169

RRIRVRPPRLPRPRPRPALRPRP
shrunken log2 fold change: 0.306

RRIRVRPPRLPRPRPRPANDPRP
shrunken log2 fold change: 0.0219

RRIRVRPPRLPRPRPRPAPSPRP
shrunken log2 fold change: 0.342

RRIRVRPPRLPRPRPRPAPWPRP
shrunken log2 fold change: 0.395

RRIRVRPPRLPRPRPRPASCPRP
shrunken log2 fold change: -0.0873

RRIRVRPPRLPRPRPRPASGPRP
shrunken log2 fold change: -0.188

RRIRVRPPRLPRPRPRPASRPRP
shrunken log2 fold change: 0.275

RRIRVRPPRLPRPRPRPATDPRP
shrunken log2 fold change: 0.132

RRIRVRPPRLPRPRPRPAVWPRP
shrunken log2 fold change: 0.458

RRIRVRPPRLPRPRPRPAWGPRP
shrunken log2 fold change: 0.515

RRIRVRPPRLPRPRPRPAWSPRP
shrunken log2 fold change: 0.192

RRIRVRPPRLPRPRPRPAWWPRP
shrunken log2 fold change: 0.156

RRIRVRPPRLPRPRPRPAYGPRP
shrunken log2 fold change: -0.473

RRIRVRPPRLPRPRPRPAYTPRP
shrunken log2 fold change: -0.286

RRIRVRPPRLPRPRPRPCAAPRP
shrunken log2 fold change: 0.121

RRIRVRPPRLPRPRPRPCAGPRP
shrunken log2 fold change: -0.106

RRIRVRPPRLPRPRPRPCAHPRP
shrunken log2 fold change: -0.0704

RRIRVRPPRLPRPRPRPCASPRP
shrunken log2 fold change: 0.116

RRIRVRPPRLPRPRPRPCCDPRP
shrunken log2 fold change: -0.182

RRIRVRPPRLPRPRPRPCEPPRP
shrunken log2 fold change: 0.137

RRIRVRPPRLPRPRPRPCFSPRP
shrunken log2 fold change: -0.356

RRIRVRPPRLPRPRPRPCFYPRP
shrunken log2 fold change: -0.511

RRIRVRPPRLPRPRPRPCGLPRP
shrunken log2 fold change: -0.173

RRIRVRPPRLPRPRPRPCIHPRP
shrunken log2 fold change: 0.0261

RRIRVRPPRLPRPRPRPCIRPRP
shrunken log2 fold change: -0.198

RRIRVRPPRLPRPRPRPCKAPRP
shrunken log2 fold change: 0.033

RRIRVRPPRLPRPRPRPCKQPRP
shrunken log2 fold change: -0.148

RRIRVRPPRLPRPRPRPCKTPRP
shrunken log2 fold change: -0.00208

RRIRVRPPRLPRPRPRPCLEPRP
shrunken log2 fold change: 0.0452

RRIRVRPPRLPRPRPRPCLIPRP
shrunken log2 fold change: -0.641

RRIRVRPPRLPRPRPRPCLYPRP
shrunken log2 fold change: -0.0189

RRIRVRPPRLPRPRPRPCMAPRP
shrunken log2 fold change: -0.276

RRIRVRPPRLPRPRPRPCMNPRP
shrunken log2 fold change: -0.31

RRIRVRPPRLPRPRPRPCPLPRP
shrunken log2 fold change: -0.418

RRIRVRPPRLPRPRPRPCQNPRP
shrunken log2 fold change: -0.293

RRIRVRPPRLPRPRPRPCSDPRP
shrunken log2 fold change: -0.0601

RRIRVRPPRLPRPRPRPCSQPRP
shrunken log2 fold change: -0.0327

RRIRVRPPRLPRPRPRPCTKPRP
shrunken log2 fold change: -0.275

RRIRVRPPRLPRPRPRPCTVPRP
shrunken log2 fold change: -0.14

RRIRVRPPRLPRPRPRPCVSPRP
shrunken log2 fold change: -0.0282

RRIRVRPPRLPRPRPRPCWAPRP
shrunken log2 fold change: 0.154

RRIRVRPPRLPRPRPRPCWHPRP
shrunken log2 fold change: -0.0327

RRIRVRPPRLPRPRPRPCYTPRP
shrunken log2 fold change: -0.498

RRIRVRPPRLPRPRPRPDCAPRP
shrunken log2 fold change: 0.0509

RRIRVRPPRLPRPRPRPDDIPRP
shrunken log2 fold change: -0.442

RRIRVRPPRLPRPRPRPDDVPRP
shrunken log2 fold change: -0.297

RRIRVRPPRLPRPRPRPDEYPRP
shrunken log2 fold change: 0.0327

RRIRVRPPRLPRPRPRPDGDPRP
shrunken log2 fold change: -0.339

RRIRVRPPRLPRPRPRPDGYPRP
shrunken log2 fold change: -0.00884

RRIRVRPPRLPRPRPRPDKGPRP
shrunken log2 fold change: -0.591

RRIRVRPPRLPRPRPRPDKYPRP
shrunken log2 fold change: -0.277

RRIRVRPPRLPRPRPRPDMEPRP
shrunken log2 fold change: 0.0238

RRIRVRPPRLPRPRPRPDMRPRP
shrunken log2 fold change: -0.437

RRIRVRPPRLPRPRPRPDNFPRP
shrunken log2 fold change: 0.0216

RRIRVRPPRLPRPRPRPDNLPRP
shrunken log2 fold change: 0.0725

RRIRVRPPRLPRPRPRPDPYPRP
shrunken log2 fold change: -0.1

RRIRVRPPRLPRPRPRPDQFPRP
shrunken log2 fold change: -0.0568

RRIRVRPPRLPRPRPRPDQNPRP
shrunken log2 fold change: -0.0845

RRIRVRPPRLPRPRPRPDVGPRP
shrunken log2 fold change: -0.13

RRIRVRPPRLPRPRPRPDWQPRP
shrunken log2 fold change: 0.0968

RRIRVRPPRLPRPRPRPDWVPRP
shrunken log2 fold change: -0.0925

RRIRVRPPRLPRPRPRPEECPRP
shrunken log2 fold change: 0.0155

RRIRVRPPRLPRPRPRPEEEPRP
shrunken log2 fold change: 0.0136

RRIRVRPPRLPRPRPRPEEFPRP
shrunken log2 fold change: -0.034

RRIRVRPPRLPRPRPRPEEWPRP
shrunken log2 fold change: 0.015

RRIRVRPPRLPRPRPRPEFMPRP
shrunken log2 fold change: -0.0942

RRIRVRPPRLPRPRPRPEGAPRP
shrunken log2 fold change: 0.451

RRIRVRPPRLPRPRPRPEHEPRP
shrunken log2 fold change: -0.12

RRIRVRPPRLPRPRPRPEICPRP
shrunken log2 fold change: 0.2

RRIRVRPPRLPRPRPRPELLPRP
shrunken log2 fold change: 0.0724

RRIRVRPPRLPRPRPRPEMQPRP
shrunken log2 fold change: 0.175

RRIRVRPPRLPRPRPRPEMWPRP
shrunken log2 fold change: 0.0217

RRIRVRPPRLPRPRPRPENCPRP
shrunken log2 fold change: -0.0723

RRIRVRPPRLPRPRPRPENIPRP
shrunken log2 fold change: -0.125

RRIRVRPPRLPRPRPRPENWPRP
shrunken log2 fold change: 0.131

RRIRVRPPRLPRPRPRPERNPRP
shrunken log2 fold change: -0.323

RRIRVRPPRLPRPRPRPESDPRP
shrunken log2 fold change: 0.0889

RRIRVRPPRLPRPRPRPESNPRP
shrunken log2 fold change: 0.0327

RRIRVRPPRLPRPRPRPESSPRP
shrunken log2 fold change: 0.00518

RRIRVRPPRLPRPRPRPETMPRP
shrunken log2 fold change: 0.0389

RRIRVRPPRLPRPRPRPEVEPRP
shrunken log2 fold change: -0.0626

RRIRVRPPRLPRPRPRPEYCPRP
shrunken log2 fold change: -0.154

RRIRVRPPRLPRPRPRPEYGPRP
shrunken log2 fold change: -0.00905

RRIRVRPPRLPRPRPRPEYQPRP
shrunken log2 fold change: -0.235

RRIRVRPPRLPRPRPRPEYYPRP
shrunken log2 fold change: 0.0358

RRIRVRPPRLPRPRPRPFCPPRP
shrunken log2 fold change: -0.0571

RRIRVRPPRLPRPRPRPFCWPRP
shrunken log2 fold change: 0.163

RRIRVRPPRLPRPRPRPFDNPRP
shrunken log2 fold change: -0.359

RRIRVRPPRLPRPRPRPFDVPRP
shrunken log2 fold change: -0.0208

RRIRVRPPRLPRPRPRPFECPRP
shrunken log2 fold change: -0.0624

RRIRVRPPRLPRPRPRPFGHPRP
shrunken log2 fold change: 0.13

RRIRVRPPRLPRPRPRPFGMPRP
shrunken log2 fold change: -0.0877

RRIRVRPPRLPRPRPRPFGTPRP
shrunken log2 fold change: -0.0129

RRIRVRPPRLPRPRPRPFHEPRP
shrunken log2 fold change: 0.324

RRIRVRPPRLPRPRPRPFHHPRP
shrunken log2 fold change: -0.182

RRIRVRPPRLPRPRPRPFIFPRP
shrunken log2 fold change: -0.177

RRIRVRPPRLPRPRPRPFNNPRP
shrunken log2 fold change: -0.147

RRIRVRPPRLPRPRPRPFPKPRP
shrunken log2 fold change: -0.0266

RRIRVRPPRLPRPRPRPFQKPRP
shrunken log2 fold change: 0.0406

RRIRVRPPRLPRPRPRPFRDPRP
shrunken log2 fold change: -0.0207

RRIRVRPPRLPRPRPRPFRIPRP
shrunken log2 fold change: -0.26

RRIRVRPPRLPRPRPRPFTIPRP
shrunken log2 fold change: -0.085

RRIRVRPPRLPRPRPRPFVRPRP
shrunken log2 fold change: -0.0708

RRIRVRPPRLPRPRPRPFWCPRP
shrunken log2 fold change: -0.121

RRIRVRPPRLPRPRPRPFWRPRP
shrunken log2 fold change: 0.0595

RRIRVRPPRLPRPRPRPFYEPRP
shrunken log2 fold change: -0.453

RRIRVRPPRLPRPRPRPGAFPRP
shrunken log2 fold change: 0.0224

RRIRVRPPRLPRPRPRPGAMPRP
shrunken log2 fold change: 0.0686

RRIRVRPPRLPRPRPRPGAPPRP
shrunken log2 fold change: 0.603

RRIRVRPPRLPRPRPRPGCIPRP
shrunken log2 fold change: -0.0275

RRIRVRPPRLPRPRPRPGCNPRP
shrunken log2 fold change: -0.216

RRIRVRPPRLPRPRPRPGCRPRP
shrunken log2 fold change: 0.5

RRIRVRPPRLPRPRPRPGDWPRP
shrunken log2 fold change: 0.432

RRIRVRPPRLPRPRPRPGEKPRP
shrunken log2 fold change: -0.186

RRIRVRPPRLPRPRPRPGETPRP
shrunken log2 fold change: -0.238

RRIRVRPPRLPRPRPRPGFEPRP
shrunken log2 fold change: 0.554

RRIRVRPPRLPRPRPRPGFKPRP
shrunken log2 fold change: -0.0945

RRIRVRPPRLPRPRPRPGGSPRP
shrunken log2 fold change: 0.0297

RRIRVRPPRLPRPRPRPGHEPRP
shrunken log2 fold change: -0.0501

RRIRVRPPRLPRPRPRPGHRPRP
shrunken log2 fold change: -0.0978

RRIRVRPPRLPRPRPRPGIQPRP
shrunken log2 fold change: 0.0729

RRIRVRPPRLPRPRPRPGKIPRP
shrunken log2 fold change: -0.346
